Assay results reported in publication doi:10.1101/2024.07.16.603655 (bioRxiv, 2024).
Each block holds one molecule with its values, some of them ahead of it.

Assays:
[1] = target: dsRBD3-6xHis (dsRNA binding domain 3 of zebrafish Prkra) (zebrafish); assay: native gel or EMSA
[2] = target: the molecule itself; assay: native gel or EMSA

- stoichiometry N [1]: 2
Molecule: dsRBD3-6xHis (dsRNA binding domain 3 of zebrafish Prkra) (domain or fragment)

B1: Prkra-6xHis (recombinant wild-type zebrafish Prkra) (natural protein, UniProt B0V3F8 1-282, looked up)
chain: MAPQRSQDKTPIQLLHEYGIKISSAPKYELIHADGDAHQPSFMFSVTIGEVTCKGRGSTKKAAKHEAAEAALKLLKRDSQIIDQRDNNGLSPEAGEASNPVGILQELAMQRVWCLPEYVVFMETGPGHMKEFTIACRLEGLEETGSGSSKKLARRAAAENMIAKLQSLSGSSEITWSPPSRVYVESLRNSTGEKVSLLKRTPLSLPNTDYIQMLLEISLELGFQVTYIDIDELTVNGQYQCLVELSTRPVTVCHGSGVTSSNAHNAAAHNALQYIKMVASKH
- stoichiometry N [2]: ~2
